Data published in the supplement of paper PMC7877785.
± gives the uncertainty stated by the source.

Assay: self-splicing fitness, log relative to wild type (ln ratio); higher = more splicing; Tetrahymena group I intron in knt gene, E. coli kanamycin selection, DiMSum; sequences stand for … in CUCUCU…GGAGGGAAAAGUUAUCAGGCAUGCACCUGGUAGCUAGUCUUUAAACCAAUAGAUUGCAUCGGUUUAAAAGGCAAGACCGUCAAAUUGCGGGAAAGGGGUCAACAGCCGUUCAGUACCAAGUCUCAGGGGAAACUUUGAGAUGGCCUUGCAAAGGGUAUGGUAAUAAGCUGACGGACAUGGUCCUAACCACGCAGCCAAGUCCUAAGUCAACAGAUCUUCUGUUGAUAUGGAUGCAGUUCACAGACUAAAUGUCGGUCGGGGAAGAUGUAUUCUUCUCAUAAGAUAUAGUCGGACCUCUCCUUAAUGGGAGCUAGCGGAUGAAGUGAUGCAACACUGGAGCCGCUGGGAACUAAUUUGUAUGCGAAAGUAUAUUGAUUAGUUUUGGAGUACUCGUGGUCG
How it was run: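 Fitness was computed with DiMSum as the error-weighted combination of replicate fold changes, kanamycin versus none, each normalised to wild type. The library randomised all eight intron nucleotides of the P1ex region, with the intron placed in the knt kanamycin-resistance gene on pET-22b(+) in E. coli BL21(DE3). Six replicate transformations were grown overnight at 37°C or 30°C on LB agar with or without 25 μg/mL kanamycin, plus 100 μg/mL carbenicillin, 50 μM IPTG and 0.2% rhamnose. Pooled colonies were amplicon-sequenced on an Illumina HiSeq 2500.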

| Sequence | self-splicing fitness (ln) (30 °C) | self-splicing fitness (ln) (37 °C) |
| --- | --- | --- |
| GUAAAGCAAUAUUACGAGUC | -2.56 ± 0.15 | -1.38 ± 0.19 |
| GUAAAGCAAUAUUACGAUGA | -0.0816 ± 0.064 | -0.318 ± 0.068 |
| GUAAAGCAAUAUUACGCAGA | -2.79 ± 0.22 | -0.446 ± 0.17 |
| GUAAAGCAAUAUUACGCGAG | -0.869 ± 0.068 | -0.158 ± 0.091 |
| GUAAAGCAAUAUUACGCGGC | -2.96 ± 0.21 | -0.672 ± 0.18 |
| GUAAAGCAAUAUUACGCUAG | -1.03 ± 0.079 | -0.533 ± 0.1 |
| GUAAAGCAAUAUUACGGAAC | -1.56 ± 0.12 | -1.57 ± 0.21 |
| GUAAAGCAAUAUUACGGAGA | -3.54 ± 0.28 | – |
| GUAAAGCAAUAUUACGGGAU | -1.62 ± 0.082 | -0.341 ± 0.11 |
| GUAAAGCAAUAUUACGGGUG | -1.6 ± 0.065 | -0.848 ± 0.091 |
| GUAAAGCAAUAUUACGGUCC | -1.23 ± 0.21 | -0.634 ± 0.25 |
| GUAAAGCAAUAUUACGGUGC | -2.22 ± 0.083 | -0.36 ± 0.083 |
| GUAAAGCAAUAUUACGGUUC | -0.687 ± 0.097 | -0.679 ± 0.13 |
| GUAAAGCAAUAUUACGUAAA | -2.08 ± 0.1 | -0.853 ± 0.11 |
| GUAAAGCAAUAUUACGUACC | -3.89 ± 0.2 | -2.55 ± 0.2 |
| GUAAAGCAAUAUUACGUACU | -1.01 ± 0.076 | -0.965 ± 0.13 |
| GUAAAGCAAUAUUACGUCGG | -2.85 ± 0.12 | -1.05 ± 0.13 |
| GUAAAGCAAUAUUACGUGGA | -2.51 ± 0.095 | -1.38 ± 0.073 |
| GUAAAGCAAUAUUACGUUUU | -2.7 ± 0.076 | -1.9 ± 0.1 |
| GUACAGCAAUAUUACGAACC | -1.19 ± 0.14 | -0.582 ± 0.18 |
| GUACAGCAAUAUUACGAAUA | -3.26 ± 0.22 | -1.67 ± 0.13 |
| GUACAGCAAUAUUACGACUU | -0.754 ± 0.059 | -0.179 ± 0.073 |
| GUACAGCAAUAUUACGAUCC | -0.427 ± 0.14 | 0.81 ± 0.18 |
| GUACAGCAAUAUUACGAUUG | -5.06 ± 0.25 | -2.87 ± 0.17 |
| GUACAGCAAUAUUACGCGCC | -2.15 ± 0.21 | -1.49 ± 0.34 |

| Sequence | self-splicing fitness (ln) (30 °C) | self-splicing fitness (ln) (37 °C) |
| --- | --- | --- |
| GUACAGCAAUAUUACGCGGA | -2.49 ± 0.21 | -0.988 ± 0.15 |
| GUACAGCAAUAUUACGCGGU | -3.17 ± 0.15 | -2.31 ± 0.15 |
| GUACAGCAAUAUUACGCUGU | -3.5 ± 0.16 | -3 ± 0.21 |
| GUACAGCAAUAUUACGGAGU | -3.06 ± 0.18 | -1.88 ± 0.15 |
| GUACAGCAAUAUUACGGAUA | -2.46 ± 0.12 | -2.36 ± 0.14 |
| GUACAGCAAUAUUACGGAUC | -0.86 ± 0.081 | -0.551 ± 0.11 |
| GUACAGCAAUAUUACGGCGC | -0.365 ± 0.082 | -0.0882 ± 0.095 |
| GUACAGCAAUAUUACGGGAG | -3.04 ± 0.21 | -1.92 ± 0.15 |
| GUACAGCAAUAUUACGGGGC | -3.74 ± 0.35 | -2.77 ± 0.47 |
| GUACAGCAAUAUUACGUCAA | -1.75 ± 0.16 | -2.38 ± 0.21 |
| GUACAGCAAUAUUACGUCCG | -3.2 ± 0.23 | -1.74 ± 0.17 |
| GUACAGCAAUAUUACGUCGU | -1.34 ± 0.11 | 0.338 ± 0.11 |
| GUACAGCAAUAUUACGUGCA | -3.96 ± 0.22 | -2.17 ± 0.16 |
| GUACAGCAAUAUUACGUGCG | -2.57 ± 0.12 | -1.21 ± 0.095 |
| GUACAGCAAUAUUACGUGUU | -2.74 ± 0.075 | -1.54 ± 0.1 |
| GUACAGCAAUAUUACGUUAU | -4.01 ± 0.25 | -1.87 ± 0.14 |
| GUACAGCAAUAUUACGUUCG | -1.45 ± 0.061 | -0.316 ± 0.079 |
| GUACAGCAAUAUUACGUUCU | -1.98 ± 0.1 | -0.102 ± 0.1 |
| GUAGAGCAAUAUUACGACAA | 0.152 ± 0.14 | -0.0812 ± 0.17 |
| GUAGAGCAAUAUUACGAGGC | -3.01 ± 0.19 | -2.63 ± 0.29 |
| GUAGAGCAAUAUUACGAGGU | -1.12 ± 0.16 | -1.33 ± 0.32 |
| GUAGAGCAAUAUUACGAUCG | -2.6 ± 0.15 | -0.951 ± 0.17 |
| GUAGAGCAAUAUUACGAUGG | -2.34 ± 0.091 | -1.59 ± 0.11 |
| GUAGAGCAAUAUUACGCAAA | -2.21 ± 0.16 | -1.59 ± 0.17 |
| GUAGAGCAAUAUUACGCAAG | -0.744 ± 0.22 | -1.49 ± 0.27 |

| Sequence | self-splicing fitness (ln) (30 °C) | self-splicing fitness (ln) (37 °C) |
| --- | --- | --- |
| GUAGAGCAAUAUUACGCACU | -1.24 ± 0.25 | 0.332 ± 0.23 |
| GUAGAGCAAUAUUACGCAGA | – | -1.92 ± 0.32 |
| GUAGAGCAAUAUUACGCCUU | -0.0606 ± 0.13 | 0.0599 ± 0.17 |
| GUAGAGCAAUAUUACGCGGG | -2.65 ± 0.15 | -1.43 ± 0.17 |
| GUAGAGCAAUAUUACGCUCG | -1.59 ± 0.13 | -0.12 ± 0.16 |
| GUAGAGCAAUAUUACGGACA | -0.864 ± 0.17 | -1.72 ± 0.27 |
| GUAGAGCAAUAUUACGGACC | -1.22 ± 0.14 | 0.305 ± 0.2 |
| GUAGAGCAAUAUUACGGAGC | -0.91 ± 0.14 | -0.327 ± 0.2 |
| GUAGAGCAAUAUUACGGAUC | -0.404 ± 0.1 | -0.0325 ± 0.14 |
| GUAGAGCAAUAUUACGGCUA | -0.487 ± 0.11 | 0.641 ± 0.16 |
| GUAGAGCAAUAUUACGGUCC | -1.01 ± 0.17 | -0.565 ± 0.28 |
| GUAGAGCAAUAUUACGGUGG | -3.39 ± 0.45 | -0.894 ± 0.23 |
| GUAGAGCAAUAUUACGUCGC | -0.635 ± 0.15 | -0.21 ± 0.18 |
| GUAGAGCAAUAUUACGUGCU | – | -1.29 ± 0.39 |
| GUAGAGCAAUAUUACGUGGC | -1.52 ± 0.17 | -1.29 ± 0.27 |
| GUAUAGCAAUAUUACGAACU | -1.75 ± 0.23 | 0.477 ± 0.24 |
| GUAUAGCAAUAUUACGACCA | -0.996 ± 0.17 | -0.193 ± 0.17 |
| GUAUAGCAAUAUUACGCGCU | -2.22 ± 0.16 | -0.818 ± 0.16 |
| GUAUAGCAAUAUUACGCUGU | -2.81 ± 0.26 | -2.48 ± 0.3 |
| GUAUAGCAAUAUUACGGACC | -1.89 ± 0.5 | -2.56 ± 0.3 |
| GUAUAGCAAUAUUACGGCCG | -2.76 ± 0.21 | -1.09 ± 0.17 |
| GUAUAGCAAUAUUACGGGAU | -3.5 ± 0.29 | -0.308 ± 0.11 |
| GUAUAGCAAUAUUACGGGUA | -2.56 ± 0.27 | -1.28 ± 0.19 |
| GUAUAGCAAUAUUACGGUAU | -2.73 ± 0.18 | -2.26 ± 0.19 |
| GUAUAGCAAUAUUACGGUUG | -3.77 ± 0.3 | -1.35 ± 0.3 |

| Sequence | self-splicing fitness (ln) (30 °C) | self-splicing fitness (ln) (37 °C) |
| --- | --- | --- |
| GUAUAGCAAUAUUACGUAGA | – | -2.07 ± 0.32 |
| GUAUAGCAAUAUUACGUUCA | -1.06 ± 0.2 | -0.424 ± 0.23 |
| GUCAAGCAAUAUUACGAACG | -2.06 ± 0.15 | -1.27 ± 0.15 |
| GUCAAGCAAUAUUACGAGGU | -2.65 ± 0.26 | -3.03 ± 0.37 |
| GUCAAGCAAUAUUACGAGUG | -3.56 ± 0.17 | -1.69 ± 0.16 |
| GUCAAGCAAUAUUACGAUCA | -1.76 ± 0.23 | -0.845 ± 0.15 |
| GUCAAGCAAUAUUACGCGAU | -4.38 ± 0.28 | -3.64 ± 0.39 |
| GUCAAGCAAUAUUACGCGUC | -2.99 ± 0.15 | -2.22 ± 0.19 |
| GUCAAGCAAUAUUACGCUCG | -2.95 ± 0.14 | -1.18 ± 0.12 |
| GUCAAGCAAUAUUACGCUGU | -3.26 ± 0.13 | -2.42 ± 0.19 |
| GUCAAGCAAUAUUACGGAUA | -2.47 ± 0.19 | -1.27 ± 0.17 |
| GUCAAGCAAUAUUACGGCCG | -2.31 ± 0.4 | – |
| GUCAAGCAAUAUUACGGCGG | -4.75 ± 0.32 | -2.83 ± 0.24 |
| GUCAAGCAAUAUUACGGCGU | -1.04 ± 0.083 | -0.0377 ± 0.1 |
| GUCAAGCAAUAUUACGGGCA | -3.61 ± 0.41 | -2.97 ± 0.3 |
| GUCAAGCAAUAUUACGGGCC | -3.75 ± 0.27 | -2.77 ± 0.31 |
| GUCAAGCAAUAUUACGGGGU | -5.42 ± 0.25 | -4.15 ± 0.19 |
| GUCAAGCAAUAUUACGGUAG | -3.35 ± 0.18 | -4.66 ± 0.38 |
| GUCAAGCAAUAUUACGGUUU | -2.48 ± 0.075 | -1.44 ± 0.077 |
| GUCAAGCAAUAUUACGUAUU | -2.98 ± 0.12 | -1.84 ± 0.1 |
| GUCAAGCAAUAUUACGUCCA | -2.58 ± 0.25 | -0.387 ± 0.12 |
| GUCAAGCAAUAUUACGUCCG | – | -3.83 ± 0.39 |
